Reference: patent US8748572B2, “RNase a peptides, fragments and uses thereof” (priority 2006, dated 2014)
Entries after “also recorded” stand apart in the source; their conditions may differ. Marks after values point to notes of the source that are not given here.

B1: rRNase A-2: recombinant carboxy-terminal FLAG-tagged Gallus gallus leukocyte RNase A-2, SEQ ID NO: 4, GenBank DQ395276 (protein, listed as Gallus gallus)
chain: VPTYQDFLYKHMDFPKTSFPSNAAYCNVMMVRRGMTAHGRCKSFNTFVHTDPRNLNTLCINQPDQALRTTRRHFRITDCKLIRSHPTCRYSGNQFNRRVRVGCRGGLPVHLDGTSP
modifications: C-terminal FLAG tag
B2: rRNase A-1: recombinant carboxy-terminal FLAG-tagged Gallus gallus leukocyte RNase A-1, SEQ ID NO: 2, GenBank DQ395275 (protein, listed as Gallus gallus)
chain: VPTYQDFLRTHVDFPKTSFPNIAAYCNVMMVRRGINVHGRCKSLNTFVHTDPRNLNTLCINQPNRALRTTQQQLPVTDCKLIRSHPTCSYTGNQFNHRVRVGCWGGLPVHLDGTFP
modifications: C-terminal FLAG tag

Experiments:
[1] = system: chicken aortic rings; experiment: chick aortic ring assay (angiogenesis); type: cell-based; settings: for blood vessel formation in aortic rings (in words) / Angiogenesis Scores: 2 μM recombinant RNase; for blood vessel formation in aortic rings (in words): ex vivo; for Angiogenesis Scores: 24 h, Mean ± SEM, 6 to 8 rings; for % change of angiogenesis score vs control: 2 μM, ([rRNase − control]×100/[control])
From the text: The angiogenic activity of a particular RNase A polypeptide or fragment can be assessed by known protocols, such as that described in the methods section and the following described protocol, herein referred to as “a standard angiogenesis assay.” For example, the chick aortic ring sprouting assay, described in the art, can be a standard angiogenesis assay according to the invention. In the assay, aortic arches are dissected from 13-day-old chicken embryos, cleaned free of unwanted tissue and cut into 0.8 mm slices. Each ring is transferred into center of a well of 96-well plate, and ice-cold Matrigel (Becton Dickinson, Bedford, Mass.) is added immediately to imbed the ring. After solidification of the Matrigel, human endothelial-SFM basal growth medium (Invitrogen) is added to each well. After addition of recombinant leukocyte RNase A-1 or RNase A-2 or control preparation, the rings are incubated at 37° C. for 24 h. Vessels sprouted from rings are observed under microscopy, and assessed by blinded observers.
Both chicken leukocyte RNases are structurally related to the mammalian angiogenin lineage, as discussed above and illustrated in FIG. 1. However, none of the non-mammalian ribonucleases evaluated thus far have been reported to have angiogenic activity. Here, the potential angiogenic activity of recombinant leukocyte RNases A-1 and A-2 was evaluated using the chick aortic ring assay as described in the literature. Briefly, aortic rings prepared from 13 day-old chick embryos were incubated with 2 μM recombinant leukocyte RNases (rRNases).
Table 1 details the results of the chick aortic ring assay. Specifically, vessels sprouted from aortic rings treated with 100 μl of human endothelial-SFM basal growth medium and 2 μM recombinant leukocyte RNase were observed under microscopy and assessed by blinded observers, according previously published methods. Each of the groups (named Exp. 1 and Exp. 2) were composed of 6 to 8 rings. Percent (%) change is a value that represents ([rRNase A-1 or A-2−control]×100/[control]). *p<0.05, as determined using the Student's t-test.
The chick aortic ring sprouting assay was performed as described previously with minor modifications. Aortic arches were dissected from 13-day-old chicken embryos, cleaned free of unwanted tissue and cut into 0.8 mm slices. Each ring was transferred into center of a well of 96-well plate. Ice-cold 10 μl of Matrigel (Becton Dickinson, Bedford, Mass.) were added immediately to imbed the ring. After the Matrigel was solidified, 100 μl of human endothelial-SFM basal growth medium (Invitrogen) was added to each well. After addition of recombinant leukocyte RNase A-1 or RNase A-2 or control preparation, the rings were incubated at 37° C. for 24 h. Vessels sprouted from rings were observed under microscopy, and assessed by blinded observers. Each groups composed of 6 to 8 rings.

[2] = system: E. coli DH5α; experiment: bactericidal colony-forming assay, E. coli; type: cell-based, Escherichia coli
Experimental: FIGS. 5 A & B are graphs showing the bactericidal activity of rRNases A-1 and A-2. In panel (A) E. coli DH5α and in panel (B) S. aureus 502A were re-suspended in 100 mM sodium phosphate buffer, pH 7.4, and incubated with the indicated concentrations of chicken leukocyte RNase A-1 (open squares) and A-2 (closed circles) for 4 h at 37° C., plated on RNase-free LB agar, and grown overnight for colony counts.
RNase A polypeptides and fragments according to the invention that have bactericidal activity are particularly preferred for use in the treatment methods of the invention. The bactericidal and bacteriostatic activity of a particular RNase A polypeptides or fragments can be assessed by known protocols, such as that described in the methods section and the following described protocol, herein referred to as “a standard bacterial colony formation assay.” Bactericidal assays are well-described in the art, and are performed as described previously, and as exemplified in Examples 3-6. Briefly, an aliquot from a single bacterial colony overnight culture grown in Luria-Beitani (LB) broth is diluted 1:100 in sodium phosphate, pH 7.4, collected by centrifugation, and resuspended in sodium phosphate, pH 7.4. An aliquot of bacteria in buffer are incubated for 4 hr at 37° C. with recombinant protein or peptide at concentrations indicated, or diluent control and were then diluted 10, 100, or 1000-fold prior to plating on LB agar for overnight growth for colony counts.
Next, the bactericidal activity of chicken leukocyte RNases were examined using a colony-forming assay as previously described for eosinophil cationic protein [28]. […] E. coli was more susceptible to the bactericidal activity of leukocyte rRNase A-2 than was S. aureus, as 5 μM rRNase A-2 reduced the colony count of E. coli 10^7-fold, while reducing the colony count of S. aureus, only 100-fold. Recombinant RNase A-1 had no effect on colony number of E. coli or S. aureus concentrations up to and including […].
Bactericidal assays were performed as described previously with modifications. Briefly, 100 microliters from a single bacterial colony overnight culture grown in Luria-Bertani (LB) broth was diluted 1:100 in 100 mM sodium phosphate, pH 7.4, collected by centrifugation, and resuspended in 1 ml sodium phosphate, pH 7.4. Ten microliters of bacteria in buffer are incubated for 4 hr at 37° C. with 10 microliters recombinant protein or peptide at concentrations indicated, or diluent control and were then diluted 10, 100, or 1000-fold prior to plating on LB agar for overnight growth for colony counts. All points were determined in triplicate.

Molecule | blood vessel formation in aortic rings (in words) [1] | Angiogenesis Scores ([1]; Exp. 1) | % change of angiogenesis score vs control ([1]; Exp. 1) | Angiogenesis Scores ([1]; Exp. 2) | % change of angiogenesis score vs control ([1]; Exp. 2) | reduction of colony count of E. coli ([2]; 5 μM, 4 h at 37° C.) | colony count of E. coli after incubation ([2]; 5 μM, 4 hrs) [CFU/ml] | bactericidal activity against E. coli (in words), recombinant proteins ([2]; 5 μM, 4 hrs) | effect on colony number of E. coli ([2]; concentrations up to and including 5 μl %/1)
B1 | Prominent blood vessel formation; also recorded: has angiogenic activity ex vivo | 0.68 ± 0.26* Arbitary Units | +84% | 0.60 ± 0.14* Arbitary Units | +82% | 10^7 fold | < 100 |  | 
B2 | comparable to that in the control | 0.38 ± 0.13 Arbitary Units | +2.7% | 0.41 ± 0.06 Arbitary Units | +24% |  |  | no impact on colony count | no effect
